Values of other authors, collected in article PMC2888655.
Where two headings read alike, the source gives them in different places.

Tests used:
IGF2 (Homo sapiens) [1] = biological target: IGF2 (Homo sapiens) (UniProt P01344); test: SPR
IGF1 (Homo sapiens) [2] = biological target: IGF1 (Homo sapiens) (UniProt P05019); test: SPR
IGF1 (Homo sapiens) [3] = biological target: IGF1 (Homo sapiens) (UniProt P05019)
IGF2 (Homo sapiens) [4] = biological target: IGF2 (Homo sapiens) (UniProt P01344)

IGF1 (Homo sapiens), sequence (P05019 49-118): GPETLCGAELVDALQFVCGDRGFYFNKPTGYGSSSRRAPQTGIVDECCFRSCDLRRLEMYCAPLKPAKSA
IGF2 (Homo sapiens), sequence (P01344 25-91): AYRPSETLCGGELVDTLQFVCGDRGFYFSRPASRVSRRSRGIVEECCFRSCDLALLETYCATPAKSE
IGF1R (from UniProt P08069), sequence (P08069 31-736): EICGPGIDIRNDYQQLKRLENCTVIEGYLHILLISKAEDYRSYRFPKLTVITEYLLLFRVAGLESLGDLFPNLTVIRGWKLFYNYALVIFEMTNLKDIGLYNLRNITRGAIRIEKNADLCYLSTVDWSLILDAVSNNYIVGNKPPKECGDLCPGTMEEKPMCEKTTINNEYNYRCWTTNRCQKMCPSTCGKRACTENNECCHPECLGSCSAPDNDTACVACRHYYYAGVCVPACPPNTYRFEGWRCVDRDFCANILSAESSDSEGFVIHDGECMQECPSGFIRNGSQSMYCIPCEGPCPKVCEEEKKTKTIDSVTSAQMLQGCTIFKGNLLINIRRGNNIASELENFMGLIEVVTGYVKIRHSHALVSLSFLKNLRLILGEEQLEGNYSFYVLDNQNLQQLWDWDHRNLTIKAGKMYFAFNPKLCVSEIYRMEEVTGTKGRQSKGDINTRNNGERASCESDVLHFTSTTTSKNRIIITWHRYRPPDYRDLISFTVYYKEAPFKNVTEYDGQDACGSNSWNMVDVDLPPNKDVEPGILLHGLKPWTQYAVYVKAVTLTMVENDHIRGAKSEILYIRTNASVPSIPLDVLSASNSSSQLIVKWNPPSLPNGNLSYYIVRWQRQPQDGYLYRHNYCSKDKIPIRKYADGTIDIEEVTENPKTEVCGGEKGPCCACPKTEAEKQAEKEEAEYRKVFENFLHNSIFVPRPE
IGF1R (from UniProt P08069), sequence (P08069 741-935): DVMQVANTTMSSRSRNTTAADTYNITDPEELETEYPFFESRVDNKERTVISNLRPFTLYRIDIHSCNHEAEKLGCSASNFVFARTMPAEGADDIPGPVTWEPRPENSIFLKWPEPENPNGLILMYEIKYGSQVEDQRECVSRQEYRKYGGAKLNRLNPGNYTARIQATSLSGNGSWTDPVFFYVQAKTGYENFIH
IGF1R (from UniProt Q05688), sequence (Q05688 14-208): as the sequence (P08069 741-935) above, with D1E, V5I, A19V, A20L, G189T counted along it

| Substance | Kd (IGF2 (Homo sapiens) [1]) | Kd (IGF1 (Homo sapiens) [2]) | Kd (IGF1 (Homo sapiens) [3]) | Kd (IGF2 (Homo sapiens) [4]) |
| --- | --- | --- | --- | --- |
| IGF1R (from UniProt P08069) | 17.8 nM | 4.45 nM |  |  |
| IGF1R (from UniProt Q05688) |  |  | 1 nM | 1 nM |
